Reference: publication PMC3750045, “Human RNase H1 Is Associated with Protein P32 and Is Involved in Mitochondrial Pre-rRNA Processing” (PLoS ONE, 2013)

T1: His-RNase H1 (Homo sapiens, UniProt O60930 1-286)
T1 sequence: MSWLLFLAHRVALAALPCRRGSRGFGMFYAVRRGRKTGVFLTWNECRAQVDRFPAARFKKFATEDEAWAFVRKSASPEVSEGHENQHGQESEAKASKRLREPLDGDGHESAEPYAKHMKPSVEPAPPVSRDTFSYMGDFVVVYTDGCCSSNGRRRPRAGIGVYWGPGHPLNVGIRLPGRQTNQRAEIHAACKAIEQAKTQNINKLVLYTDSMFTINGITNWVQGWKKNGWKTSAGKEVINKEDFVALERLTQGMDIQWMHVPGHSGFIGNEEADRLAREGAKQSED

B1: N-terminal His-tagged human RNase H1 (recombinant) (enzyme, UniProt O60930 1-286, looked up)
chain: T1 sequence
notes: human RNase H1, 286 residues (domains printed as aa1-72, aa73-135, aa136-286), in the pET 3C vector; also called His-H1; His-tag RNase H1; source: E. coli BL21 (DE3), lysed in 6 M guanidine, purified (Ni-NTA agarose)
B2: GST-P32 fusion protein (natural protein, human, UniProt Q07021 74-282, looked up)
chain: LHTDGDKAFVDFLSDEIKEERKIQKHKTLPKMSGGWELELNGTEAKLVRKVAGEKITVTFNINNSIPPTFDGEEEPSQGQKVEEQEPELTSTPNFVVEVIKNDDGKKALVLDCHYPEDEVGQEDEAESDIFSIREVSFQSTGESEWKDTNYTLNTDSLDWALYDHLMDFLADRGVDNTFADELVELSTALEHQEYITFLEDLKSFVKSQ
B3: Duplex B, non-cleavable Apo B 2'-fluoro RNA/DNA heteroduplex (XNA)
RNA: GGAUGGUAGCACAAGUGACA
DNA: TGTCCTTGTGCTACCATCC
modifications: strand 1 uniformly 2'-fluoro RNA; strand 2 DNA

How the values were obtained:
[1] = target: B2; assay: pull-down; fixed amount of GST-P32 on GST beads, increasing amounts of RNase H1 (0.025–2.0 µg/400 µl), room temperature 15–20 minutes; glutathione elution; bound RNase H1 and P32 quantified by Western blot against known amounts; settings: both partners purified
[2] = target: B1; assay: cell-based or functional assay
[3] = target: T1, His-RNase H1; assay: EMSA; 2 mM Mg2+, 4 C; EMSA: 20 mM Tris pH 7.0, 20 mM NaCl, 2 mM MgCl2, 5% glycerol, 30 min at 4 C; cleavage buffer (described for IP activity assays; competition conditions by reference): 20 mM Tris pH 7.5, 50 mM NaCl, 2 mM MgCl2, 5 mM 2-mercaptoethanol, 37 C; settings: protein: recombinant; tags: N-terminal His; label: 32P (5' end)

Binder: B1
stoichiometry N [1]: ~1.43 molecules of RNase H1 to 1 molecule of P32

Binder: B2
increase in Km of RNase H1 for the RNA/DNA duplex with GST-P32 at H1:P32 ratios of 1:1 and 1:5, against RNase H1 with GST control [2]: ~5 fold
increase in kcat of RNase H1 cleavage of the RNA/DNA duplex with GST-P32, against control RNase H1 [2]: ~2 fold

Binder: B3
binding result [3]: binds
